Laboratory results reported in patent publication US20180036256A1 (ALBERT LUDWIGS UNIVERSIT T FREIBURG, published 2018).
One block for each binder: values may come before it. Square brackets hold non-standard residues; d marks the D form. Ends that are not written are not given here. Lys(Me2) = CN(C)CCCC[C@H](N)C(=O)O

Columns and labels:
Flag-LSD1 K114A = target: T1, Flag-LSD1 K114A (UniProt O60341 1-852, limits assumed); assay: co-immunoprecipitation with anti-Flag antibody from transfected 293T cells without G9A, Western blot decorated with anti-CHD1
T1 construct: Obtained by site directed mutagenesis of Flag-LSD1; not shown: Flag tag

CHD1aa270-443 [1] = target: T2, CHD1aa270-443 (UniProt O14646 270-443); assay: isothermal titration calorimetry (data not shown)
T2 construct: Recombinant fragment; also called CHD1 double chromodomain fragment
T2 sequence (looked up): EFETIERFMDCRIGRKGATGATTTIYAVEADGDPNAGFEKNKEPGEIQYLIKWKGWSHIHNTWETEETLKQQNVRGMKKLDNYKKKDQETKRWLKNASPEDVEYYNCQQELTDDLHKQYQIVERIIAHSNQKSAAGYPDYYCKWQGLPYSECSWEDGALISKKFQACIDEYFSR

CHD1 D425A = target: T3, CHD1 D425A (UniProt O14646 270-443, limits assumed); assay: isothermal titration calorimetry (data not shown)
T3 construct: also called D425A mutation in CHD1
T3 sequence (looked up): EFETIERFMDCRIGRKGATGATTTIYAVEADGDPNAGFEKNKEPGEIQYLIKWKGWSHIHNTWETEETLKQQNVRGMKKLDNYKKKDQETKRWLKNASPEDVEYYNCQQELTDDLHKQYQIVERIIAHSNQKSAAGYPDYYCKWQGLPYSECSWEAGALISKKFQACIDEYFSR

CHD1aa270-443 [2] = target: T2, CHD1aa270-443; assay: co-crystal structure of the CHD1 double chromodomain with the LSD1 K114me2 peptide
Procedure: Crystals (space group P21212) were grown by sitting drop vapour diffusion at 4° C. in buffer containing 100 mM Hepes pH 7.5, 0.2 M L-proline, 10% (w/v) PEG3350. Prior to flash cooling in liquid nitrogen, crystals were cryoprotected in reservoir solution with 20% (v/v) ethylene glycol. Initial X-ray diffraction data were collected at the PXI beamline at the Swiss Light Source at 1=1.000 Å with a Pilatus detector. […] Data were processed and analyzed with XDS28 and Aimless²⁹. The structure was solved by molecular replacement with Phaser³⁰ using 2B2W as a search model. Manual building and refinement were performed using Coot31 and Refmac532 in the CCP4 program suite³³.

binding result (Flag-LSD1 K114A): no binding
B1: endogenous CHD1 (enzyme, human, UniProt O14646 1-1710, looked up)
chain: MNGHSDEESVRNSSGESSQSDDDSGSASGSGSGSSSGSSSDGSSSQSGSSDSDSGSESGSQSESESDTSRENKVQAKPPKVDGAEFWKSSPSILAVQRSAILKKQQQQQQQQQHQASSNSGSEEDSSSSEDSDDSSSEVKRKKHKDEDWQMSGSGSPSQSGSDSESEEEREKSSCDETESDYEPKNKVKSRKPQNRSKSKNGKKILGQKKRQIDSSEEDDDEEDYDNDKRSSRRQATVNVSYKEDEEMKTDSDDLLEVCGEDVPQPEEEEFETIERFMDCRIGRKGATGATTTIYAVEADGDPNAGFEKNKEPGEIQYLIKWKGWSHIHNTWETEETLKQQNVRGMKKLDNYKKKDQETKRWLKNASPEDVEYYNCQQELTDDLHKQYQIVERIIAHSNQKSAAGYPDYYCKWQGLPYSECSWEDGALISKKFQACIDEYFSRNQSKTTPFKDCKVLKQRPRFVALKKQPSYIGGHEGLELRDYQLNGLNWLAHSWCKGNSCILADEMGLGKTIQTISFLNYLFHEHQLYGPFLLVVPLSTLTSWQREIQTWASQMNAVVYLGDINSRNMIRTHEWTHHQTKRLKFNILLTTYEILLKDKAFLGGLNWAFIGVDEAHRLKNDDSLLYKTLIDFKSNHRLLITGTPLQNSLKELWSLLHFIMPEKFSSWEDFEEEHGKGREYGYASLHKELEPFLLRRVKKDVEKSLPAKVEQILRMEMSALQKQYYKWILTRNYKALSKGSKGSTSGFLNIMMELKKCCNHCYLIKPPDNNEFYNKQEALQHLIRSSGKLILLDKLLIRLRERGNRVLIFSQMVRMLDILAEYLKYRQFPFQRLDGSIKGELRKQALDHFNAEGSEDFCFLLSTRAGGLGINLASADTVVIFDSDWNPQNDLQAQARAHRIGQKKQVNIYRLVTKGSVEEDILERAKKKMVLDHLVIQRMDTTGKTVLHTGSAPSSSTPFNKEELSAILKFGAEELFKEPEGEEQEPQEMDIDEILKRAETHENEPGPLTVGDELLSQFKVANFSNMDEDDIELEPERNSKNWEEIIPEDQRRRLEEEERQKELEEIYMLPRMRNCAKQISFNGSEGRRSRSRRYSGSDSDSISEGKRPKKRGRPRTIPRENIKGFSDAEIRRFIKSYKKFGGPLERLDAIARDAELVDKSETDLRRLGELVHNGCIKALKDSSSGTERTGGRLGKVKGPTFRISGVQVNAKLVISHEEELIPLHKSIPSDPEERKQYTIPCHTKAAHFDIDWGKEDDSNLLIGIYEYGYGSWEMIKMDPDLSLTHKILPDDPDKKPQAKQLQTRADYLIKLLSRDLAKKEALSGAGSSKRRKARAKKNKAMKSIKVKEEIKSDSSPLPSEKSDEDDDKLSESKSDGRERSKKSSVSDAPVHITASGEPVPISEESEELDQKTFSICKERMRPVKAALKQLDRPEKGLSEREQLEHTRQCLIKIGDHITECLKEYTNPEQIKQWRKNLWIFVSKFTEFDARKLHKLYKHAIKKRQESQQNSDQNSNLNPHVIRNPDVERLKENTNHDDSSRDSYSSDRHLTQYHDHHKDRHQGDSYKKSDSRKRPYSSFSNGKDHRDWDHYKQDSRYYSDREKHRKLDDHRSRDHRSNLEGSLKDRSHSDHRSHSDHRLHSDHRSSSEYTHHKSSRDYRYHSDWQMDHRASSSGPRSPLDQRSPYGSRSPFEHSVEHKSTPEHTWSSRKT
notes: Endogenous protein in cell extracts; also called endogenously expressed CHD1

binding result (CHD1aa270-443 [1]): no binding
B2: LSD1 K114me2 peptide with R113 mutated to alanine (peptide, UniProt O60341 104-127, looked up)
peptide: TPEGRRTSRA[Lys(Me2)]RAKVEYREMDESL
notes: also called LSD1 R113A K114me2 peptide

binding result (CHD1 D425A): no binding
B3: LSD1aa104-127 K114me2 peptide (peptide, UniProt O60341 104-127, looked up)
peptide: TPEGRRTSRR[Lys(Me2)]RAKVEYREMDESL
notes: range 104-127; Synthetic peptide, used on the microarray and in ITC; also called LSD1 K114me2 peptide; dimethylated LSD1 peptide

binding result (CHD1aa270-443 [2]): binds
B4: LSD1aa108-119 K114me2 peptide (peptide, UniProt O60341 108-119, looked up)
peptide: RRTSRR[Lys(Me2)]RAKVE
notes: range 108-119; Peptide used for co-crystallisation; only residues 110-116 were modelled in the electron density; also called LSD1aa110-116 K114me2 (residues modelled in the structure); LSD1 K114me2 peptide
